What all share (test): ELISA
A general note: ELISA stands for enzyme-linked immunosorbent assay.

Experiment [1] concerns the target T1, cCD81 (chicken CD81 construct with C-terminal V5 and 6xHis tags) (chicken).
T1 construct: as m30; not shown: C-terminal V5 and 6xHis tags
T1 chain: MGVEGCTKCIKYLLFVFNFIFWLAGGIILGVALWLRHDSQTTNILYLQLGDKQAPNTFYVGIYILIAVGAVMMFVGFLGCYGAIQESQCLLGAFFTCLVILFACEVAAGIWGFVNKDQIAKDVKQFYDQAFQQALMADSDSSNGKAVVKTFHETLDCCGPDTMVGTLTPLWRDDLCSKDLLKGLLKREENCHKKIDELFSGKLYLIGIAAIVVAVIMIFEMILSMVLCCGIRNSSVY
Here is the method: (§1) To identify the epitopes to which each of the anti-human CD81 antibodies (002-A07 and 005-001) bind, ELISA assays were performed using human-chicken CD81 chimera constructs listed in Table 6. Each construct was transiently expressed in CHO cells and its cell membrane fraction was solubilized with detergents and immobilized onto a plate.
(§2) As control antibodies, human IgG4 antibody (Acris Antibodies GmbH) and mouse IgG antibody were used. Human-chicken chimera protein was captured via His tag introduced into the C-terminal by adding the membrane fraction (5 μg/100 μL/well) prepared (1) above to Ni NTA His Sorb plate (QIAGEN) in the presence of 1% (w/v) n-Octylglucoside and incubating for 3 hours at 4° C. After washing with TBST (TBS, 0.05% (v/v) Tween 20) three times, an anti-human CD81 antibody or a control antibody (50 μL/well) was added and incubated for 1 hour at room temperature (RT). After washing, 2000 fold-diluted HRP-labeled anti-human IgG4 antibody (Mouse anti-human IgG₄ HRP clone:HP6023 Beckman Coulter) or 1000 fold-diluted HRP-labeled anti-mouse IgG antibody (Invitrogen) (50 μL/well) were added. The plate was incubated for 1 hour at RT and washed with TBST three times. And then, peroxidase activity was determined by TMB One solution (Promega; Code 53025). The reaction was stopped with 2 M H₂SO₄ (50 μL) and absorbance at 450 nm was measured.

In experiment [2] the target is T2, c190h human-chicken CD81 chimera (chicken; human).
T2 construct: as m30; not shown: C-terminal V5 and 6xHis tags
T2 chain: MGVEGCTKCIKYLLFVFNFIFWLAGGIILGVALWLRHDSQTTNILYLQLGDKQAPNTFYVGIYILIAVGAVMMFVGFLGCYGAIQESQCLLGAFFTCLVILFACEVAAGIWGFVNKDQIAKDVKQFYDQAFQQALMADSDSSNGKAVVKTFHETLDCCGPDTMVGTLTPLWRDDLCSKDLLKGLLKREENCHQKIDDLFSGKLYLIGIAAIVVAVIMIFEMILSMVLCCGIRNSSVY
How it is done: as §1, §2

Experiment [3] addresses T3, h190c human-chicken CD81 chimera (human; chicken, UniProt P60033 1-236).
T3 construct: as m30; not shown: C-terminal V5 and 6xHis tags
T3 chain: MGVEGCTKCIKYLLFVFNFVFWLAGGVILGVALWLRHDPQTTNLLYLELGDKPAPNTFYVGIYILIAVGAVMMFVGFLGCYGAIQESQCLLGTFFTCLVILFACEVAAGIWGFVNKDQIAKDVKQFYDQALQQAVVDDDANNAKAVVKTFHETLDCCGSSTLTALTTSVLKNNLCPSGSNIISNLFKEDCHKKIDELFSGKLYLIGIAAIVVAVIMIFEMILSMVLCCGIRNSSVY
Here is the method:
as §1, §2

Experiment [4] concerns the target T4, human CD81 mutant V135A (human, UniProt P60033 1-236, limits assumed).
T4 construct: as m30; not shown: C-terminal V5 and 6xHis tags
T4 sequence: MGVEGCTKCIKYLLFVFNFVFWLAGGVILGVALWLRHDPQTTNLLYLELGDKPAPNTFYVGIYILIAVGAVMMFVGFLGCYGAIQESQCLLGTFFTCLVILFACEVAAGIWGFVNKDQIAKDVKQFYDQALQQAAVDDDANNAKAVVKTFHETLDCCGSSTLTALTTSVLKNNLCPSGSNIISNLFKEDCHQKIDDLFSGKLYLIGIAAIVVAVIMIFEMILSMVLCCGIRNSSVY
In outline: (§3)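 Human CD81 point mutants in pcDNA-DEST40 with C-terminal V5 and 6×His tags were expressed transiently in CHO cells for 48 hours. Membranes were solubilised with 1% n-octylglucoside and loaded at 5 μg/100 μL/well on Ni-NTA His Sorb plates (3 hours, 4° C). Antibody binding (1 hour, room temperature) was detected with HRP anti-human IgG4, TMB and absorbance at 450 nm. Relative binding affinity is the percentage of wild-type CD81 binding, corrected for V5-tag expression.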

In experiment [5] the target is T5, human CD81 mutant A164T (human, UniProt P60033 1-236, limits assumed).
T5 construct: as m30; not shown: C-terminal V5 and 6xHis tags
T5 sequence: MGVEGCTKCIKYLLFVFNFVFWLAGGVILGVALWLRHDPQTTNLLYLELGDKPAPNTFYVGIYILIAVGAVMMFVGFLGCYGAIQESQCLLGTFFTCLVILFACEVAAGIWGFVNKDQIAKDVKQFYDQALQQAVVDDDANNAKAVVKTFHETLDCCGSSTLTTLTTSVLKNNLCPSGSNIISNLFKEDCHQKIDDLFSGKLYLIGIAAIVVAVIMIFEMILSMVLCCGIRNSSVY
The gist of the method: as §3

The target in experiment [6] is T6, human CD81 mutant N172A (human, UniProt P60033 1-236, limits assumed).
T6 construct: as m30; not shown: C-terminal V5 and 6xHis tags
T6 sequence: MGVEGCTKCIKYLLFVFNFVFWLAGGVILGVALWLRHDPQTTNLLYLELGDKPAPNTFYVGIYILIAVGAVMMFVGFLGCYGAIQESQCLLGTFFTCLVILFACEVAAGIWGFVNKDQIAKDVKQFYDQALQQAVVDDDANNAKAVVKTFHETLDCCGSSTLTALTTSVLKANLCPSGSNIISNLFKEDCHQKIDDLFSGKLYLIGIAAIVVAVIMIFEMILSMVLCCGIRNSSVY

Experiment [7] concerns the target T7, human CD81 mutant Y127W (human, UniProt P60033 1-236, limits assumed).
T7 construct: as m30; not shown: C-terminal V5 and 6xHis tags
T7 sequence: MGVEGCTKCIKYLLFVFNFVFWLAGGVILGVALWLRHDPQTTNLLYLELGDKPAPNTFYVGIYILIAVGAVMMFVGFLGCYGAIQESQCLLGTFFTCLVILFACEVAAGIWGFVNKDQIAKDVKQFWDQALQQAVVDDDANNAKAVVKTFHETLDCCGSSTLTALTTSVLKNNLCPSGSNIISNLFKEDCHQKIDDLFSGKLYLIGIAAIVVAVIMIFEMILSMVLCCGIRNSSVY

Some results are limits rather than exact numbers.

B1: 002-A07 IgG4 antibody (antibody)
heavy: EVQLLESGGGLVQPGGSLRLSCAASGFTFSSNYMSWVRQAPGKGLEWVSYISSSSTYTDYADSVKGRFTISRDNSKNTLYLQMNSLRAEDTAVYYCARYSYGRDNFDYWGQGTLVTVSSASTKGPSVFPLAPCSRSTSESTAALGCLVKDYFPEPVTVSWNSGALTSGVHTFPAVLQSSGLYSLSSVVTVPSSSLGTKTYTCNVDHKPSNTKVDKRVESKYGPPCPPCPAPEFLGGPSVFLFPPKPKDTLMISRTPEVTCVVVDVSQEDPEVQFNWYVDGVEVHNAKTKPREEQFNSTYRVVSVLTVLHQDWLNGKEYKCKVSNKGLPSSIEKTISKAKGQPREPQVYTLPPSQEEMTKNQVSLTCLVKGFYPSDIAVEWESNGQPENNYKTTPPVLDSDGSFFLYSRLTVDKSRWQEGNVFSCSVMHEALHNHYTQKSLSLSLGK
light: QSVLTQPPSASGTPGQRVTISCTGSTSNIGAGYDTHWYQQLPGTAPKLLIYGNSNRPSGVPDRFSGSKSGTSASLAISGLRSEDEADYYCQSYDTNLSVWVFGGGTKLTVLGQPKAAPSVTLFPPSSEELQANKATLVCLISDFYPGAVTVAWKADSSPVKAGVETTTPSKQSNNKYAASSYLSLTPEQWKSHRSYSCQVTHEGSTVEKTVAPTECS
notes: human IgG4 S228P, lambda light chain
Consider B1, for which the “absorbance at 450 nm relative to hCD81” value in experiment [1] and in experiment [2] was under 10% in each case. The binding result in experiment [3] is reported as “binds”. Moreover, the relative binding affinity in experiment [4] and in experiment [5] was under 20% throughout.

B2: 003-D07 (antibody, human IgG4 S228P, lambda, V domains shown)
VH: EVQLLESGGGLVQPGGSLRLSCAASGFTFSSNYMSWVRQAPGKGLEWVSYISSSSTYTDYADSVKGRFTISRDNSKNTLYLQMNSLRAEDTAVYYCARYSYDRDNFDYWGQGTLVTVSS
VL: QSVLTQPFSASGTPGQRVTISCTGSTSNIGAGYDTHWYQHLPGTAPKLLIYGNSNRPSGVPDRFSGSKSGTSASLAISGLRSEDEADYYCQSYDTNLSVWVFGGGTKLTVLG
notes: IgG4 S228P
Consider B2, for which, in experiment [6], the relative binding affinity was under 20%.

B3: 002-A07 S115A (antibody, human IgG4 S228P, lambda, V domains shown)
VH: EVQLLESGGGLVQPGGSLRLSCAASGFTFSSNYMSWVRQAPGKGLEWVSYISSSSTYTDYADSVKGRFTISRDNSKNTLYLQMNSLRAEDTAVYYCARYSYGRDNFDYWGQGTLVTVSS
VL: QSVLTQPPSASGTPGQRVTISCTGSTSNIGAGYDTHWYQQLPGTAPKLLIYGNSNRPSGVPDRFSGSKSGTSASLAISGLRSEDEADYYCQSYDTNLAVWVFGGGTKLTVLG
notes: IgG4 S228P; glycosylation site mutant of 002-A07 VL
Molecule B3 yielded a relative binding affinity in experiment [7] of under 20%.
